Legend:
[1] = test system: MS2 coat protein; assay: apparent KD of MS2 coat protein; designed switch direction (-1 OFF switch, 1 ON switch): -1; higher = weaker reporter binding; conditions: Eterna round: R98
Description: (§1)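 RNA-MaP: designed FMN/MS2 RNA switches (84 nt design region) are transcribed on-chip within common flanks and titrated with SNAP-549-labelled MS2 coat protein (about 1-3000 nM) in 100 mM Tris pH 7.5, 80 mM KCl, 4 mM MgCl2, without or with 200 uM FMN. Median apparent KD per design; activation ratio = KD,OFF / KD,ON.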

[2] = test system: MS2 coat protein; assay: apparent KD of MS2 coat protein; higher = weaker reporter binding; conditions: Eterna round: R101
Description: as §1

Row | Sequence | apparent KD of MS2 coat protein ([1]; input ligand: FMN 200 uM) [nM] | apparent KD of MS2 coat protein ([1]; input ligand: none) [nM] | apparent KD of MS2 coat protein ([2]; input ligand: FMN 200 uM) [nM] | apparent KD of MS2 coat protein ([2]; input ligand: none) [nM]
1 | UCAUACAUGAGGAUCACCCAUGACAUGAGGAUCACCCAUGUGCAGGAUAUACGUGAUAUAAUAUAGUAGAAGGGCAGACUAUAA [LRO006_Exclusion NG 3] | 53 | 39.8 |  | 
2 | GGACGUCACAUUAACAUGAGGAUCACCCAUGUCAAAAGACAUGAGGAUAUGGAUCCUAAUUGGAUCCAGAAGGCAUGGACGUCC [#HiddenHairpinInALoop - Fiskers NG3ss - 39] (puzzle (switch architecture): Same State NG 3) |  |  | 14.8 | 236
3 | GGUACUCAAAGAGUACCAAUACGAACAUGAGGAUCACCCAUGUAGGAUAUGCUACUCAAAGAGUAGCAGAAGGACAUGUGUAAA [OmeiMod 10 - Jieux - Exclusion NG 3] | 567 | 92.4 |  | 
4 | GAACUCACGGCAUGCAUAUAAGCACAUGAGGAUCACCCAUGUCAGGAUAUCCACGGUCGUGCUUCGGAGAAGGGACAUGAGGCG [Lainxe] | 48 | 51.7 |  | 
5 | ACACGUCGUGAGAAGGAGGAUCACCCUUUCGAAAGAAAUAGCCACCGUGAAAACGGUGGCAGAUUUUAGGAUAUCACGACGUGA [#SharedSequence - IExNG2: 9] (puzzle (switch architecture): Inverted Exclusion NG 2) |  |  | 113 | 88.3
6 | AAACUGCCACAUGAGGAUCACCCAUGUAAAUAAAGUAUUUGAAGAAGGGCGAUAGCAAAGCUAUCGCAGGAUAUUCUCAGGCAG [#GuReductionToAU - jl-sng2-2.35] (puzzle (switch architecture): Inverted Same State NG 3) |  |  | 8.34 | 43.7
7 | GUGGUUGUCGUAGGAUAUGUAGGAUAUUCCUACAUGAGGAUCACCCAUGUUCGCAUGGAAGAAGGACAGAAGGACGAUGACCAG [salish99_SSNG2_011 #endbits investigation] (puzzle (switch architecture): Same State NG 2) |  |  | 9.85 | 855
8 | GCCAUCGCAUGAGGAUAUGCUCCCGUUUCGGGAGCAGAAGGCAUGUCAUAAGACAUGAGGAUCACCCAUGUAGUUAAGAUGGCA (puzzle (switch architecture): Same State NG 1) |  |  | 11.7 | 285
9 | AAAUGUACGAAGAAGGCUCUGCCACUGGCCGAGAGAGGAUAUUCACACAUGAGGAUCACCCAUGUCGAACAAAGUACACAGAGC [EternaBot1858] (puzzle (switch architecture): Inverted Same State NG 1) |  |  | 7.05 | 
10 | AAAUAAACCUUAGGAUAUGACUCCGAAACGGAGUCAGAAGGGAGGAUCACCCUCUUCAGCUCAGCGUCGAAAGACGCUGAGCAA [#SharedSequence ExNG1 - 21] (puzzle (switch architecture): Exclusion NG 1) |  |  | 63.3 | 72.9
11 | AUGCCGUGCAGAGCGCAACGGCGUACAUGAGGAUCACCCAUGUAGGAUAUACUACACAAAGUGUAGUAGAAGGACAUGCGACUG [Ex NG2 #93] | 185 | 56.7 |  | 
12 | CUAUAGAUAUGAGGAUAUGUAUAUCCAACAUGAGGAUCACCCAUGUUGAGGAUCACCCAUGUAAAGCAGAAGGCAUAUCUAUAG [#HighScoreProbStacks] (puzzle (switch architecture): Same State NG 2) |  |  | 16.6 | 21.5
13 | UAAGUCGGAAGAUAAUAAUGAAUACAUGAGGAUCACCCAUGUAAGGAUAUGCAGUGGAAUACACUGCAGAAGGUACAAACCGAC [Exclusion NG 3/17-A2] | 24.6 | 15.2 |  | 
14 | AAUAUAAAGAGCUGGCUUCUAAUAACAUGAGGAUCACCCAUGUAGGAUAUCAGCACGAUAAGUGCUGAGAAGGACAUCCAGCUC [Denovo 53] | 14.3 | 14.4 |  | 
15 | AAAAGAACCCGAGGAUAUGCGAAAUCACGAAGAGCAGAAGGCGGCUACAUGUGGAUCCGAGGACAUGAGGAUCACCCAUGUACG [Iszaaatce] | 165 | 321 |  | 
16 | UCUUAAAUGAUCCUAUUUACCAACAUGAGGAUCACCCAUGUGCAGGAUAUGCUAAAGAUAAAUAAGCAGAAGGGCAAUAACCGC [JR_ExcNG3_Sub007] | 608 | 127 |  | 
17 | CUGUGACGGAUCCAGAAUUACAACAUGAGGAUCACCCAUGUGCAGGAUAUCGGGUUGAUAGGCGCCGAGAAGGGUAUGAUCACG [Ex NG2 #37] | 77.3 | 80 |  | 
18 | AAUAAUUCUCAAGGAUAUGACUCCGAAACGGAGUCAGAAGGUGAGGAUCACCCACCUAGCUCAGCGUCGAAAGACGCUGAGCAA [#SharedSequence ExNG1 - 35] (puzzle (switch architecture): Exclusion NG 1) |  |  | 314 | 18.4
19 | AAAUAAAUUGAAGGAUAUCAGGGUGCACCUCAGUAAAACUGAGGUGCACCCUGAGAAGGUCGAGGAUCACCCGACCUAAAUAAA [#SharedSequence SLExNG1: 4-2] (puzzle (switch architecture): Small Loop Exclusion NG 1) |  |  | 8.37 | 7.63
20 | CCUGCACCUCAAGGAUAUCCAGUCGAAACGACUGGAGAAGGUGAGGAUCACCCAUCUAGCCUGACGAAAGUCAGGCAUGCAGGA [#SharedSequence - ExNG1-5] (puzzle (switch architecture): Exclusion NG 1) |  |  | 848 | 

Reference: the supplement of paper PMC9170038
